In patent US5663314:

Tests used:
ETE peptide = target: T1, ETE peptide
T1 sequence (peptide): RRREEETEEE

[1] = target: Recombinant ERK2 expressed in E. coli (Rattus norvegicus (Rat)) (UniProt P63086)
RR-SRC peptide = target: T2, RR-SRC peptide
T2 sequence (peptide): RRLIEDAEYAARG

S6 peptide = target: T3, S6 peptide
T3 sequence (peptide): RRLSSLRA

Syntide-2 = target: T4, Syntide-2
T4 sequence (peptide): PLARTLSVAGLPGKK

[2] = target: bovine myelin basic protein (bovine) (UniProt P02687)
Band-3 peptide = target: T5, Band-3 peptide
T5 sequence (peptide): MEELQDDYEDDMEERR

TEY peptide = target: T6, TEY peptide
T6 sequence (peptide): PEHDHTGFLTEYVATRWYR

Chain of bovine myelin basic protein (bovine) (P02687 whole entry): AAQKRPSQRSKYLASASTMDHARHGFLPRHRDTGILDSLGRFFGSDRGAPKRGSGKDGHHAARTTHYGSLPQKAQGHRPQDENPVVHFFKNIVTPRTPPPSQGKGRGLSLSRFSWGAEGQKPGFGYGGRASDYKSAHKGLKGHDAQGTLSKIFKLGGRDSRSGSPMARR

MAPK activator 1 (MAPKK1a), 46 kDa polypeptide purified from EGF-stimulated A431 cells (enzyme)
Phosphorylation (ETE peptide): < 0.005 nmol/min/mg
Phosphorylation [1]: 150 nmol/min/mg
Phosphorylation (Ribosomal S6 protein): < 0.005 nmol/min/mg
Phosphorylation (Casein): < 0.005 nmol/min/mg
Phosphorylation (Denatured enolase): < 0.005 nmol/min/mg
Phosphorylation (RR-SRC peptide): < 0.005 nmol/min/mg
Phosphorylation (Kemptide): < 0.005 nmol/min/mg
Phosphorylation (S6 peptide): < 0.005 nmol/min/mg
Phosphorylation (Syntide-2): < 0.005 nmol/min/mg
Phosphorylation [2]: 0.1 nmol/min/mg
Phosphorylation (Band-3 peptide): < 0.005 nmol/min/mg
Phosphorylation (TEY peptide): 0.04 nmol/min/mg
Phosphorylation (Histones): 0.02 nmol/min/mg
